For the data set, the target named is mortalin (mitochondrial Hsp70, mHSP70) on PANC-1 cell surface (Homo sapiens, UniProt P38646 P38646:47-679). Briefly: flow; intact PANC-1 cells, 37 C, 15.6-500 nM aptamer; target identified as mortalin by pulldown/MS. The conditions noted are these: tags: endogenous, label: Cy3 (flow) or 3'-biotin (SPR, pulldown), multi-stem-loop (Mfold). The method, then: FIG. 1A-1G: Showing the secondary structure and pancreatic cancer specific internalization (FIG. 1A). Cartoon of the secondary structures of P19 (SEQ ID NO:2) and P1 (SEQ ID NO:4) are shown; aptamers were selected from randomized N40 RNA libraries and were predicted using the Mfold program. (FIG. 1B) Cy3-labeled RNAs were tested for binding to PANC-1 and NC as control cells by flow cytometry. Data represent the average of three replicated. Initial RNA library pool is shown as Library, P1 and P19. Cy3 labeled P19 and P1 incubation in. (FIG. 1C) Cy3-labeled RNAs (100 nM) was tested for internalization by confocal in negative cells, PANC-1 and MIA PaCa-2: Cy3-labeled RNA. (FIG. 1D) Cy3-labeled RNAs (100 nM) was tested for the internalization in primary pancreatic epithelial cells; Cy3-labeled RNA. (FIG. 1E) The representative images by histopathological screen in pancreatic cancer and normal pancreas. The samples were stained with Cy3 labeled aptamer P1 and P19 respectively and examined at 100× magnification. White arrow indicate that P19 binding to cancer region. Cy3-labeled RNA. (FIG. 1F) A total of 72 patients of pancreatic adenocarcinoma had undergone. The Correlation coefficient between P1 and P19 is 0.891. […] Median fluorescence intensity (MFI) was measured and calculated using one site binding non-linear curve regression with a Graph Pad Prism.
mortalin (mitochondrial Hsp70, mHSP70) on PANC-1 cell surface, sequence (P38646 47-679, one chain of several): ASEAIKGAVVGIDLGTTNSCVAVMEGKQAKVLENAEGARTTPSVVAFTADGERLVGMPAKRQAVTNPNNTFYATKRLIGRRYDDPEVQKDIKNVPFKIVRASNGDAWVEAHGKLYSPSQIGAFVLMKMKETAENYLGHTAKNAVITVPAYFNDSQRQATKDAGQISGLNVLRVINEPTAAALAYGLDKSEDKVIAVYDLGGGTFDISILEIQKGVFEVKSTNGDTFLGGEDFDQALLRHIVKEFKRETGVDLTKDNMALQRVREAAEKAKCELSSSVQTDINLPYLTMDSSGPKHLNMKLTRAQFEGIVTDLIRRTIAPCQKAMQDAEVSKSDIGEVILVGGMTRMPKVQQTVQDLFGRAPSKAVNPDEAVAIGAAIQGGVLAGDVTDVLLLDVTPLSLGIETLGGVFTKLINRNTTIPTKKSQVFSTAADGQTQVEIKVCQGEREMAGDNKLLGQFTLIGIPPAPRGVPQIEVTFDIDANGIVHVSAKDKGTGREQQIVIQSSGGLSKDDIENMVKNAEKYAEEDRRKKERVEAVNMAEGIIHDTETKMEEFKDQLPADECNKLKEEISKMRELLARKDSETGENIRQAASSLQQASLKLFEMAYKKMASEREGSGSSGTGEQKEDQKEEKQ

Drawing on US20180087053, “ANTI-CANCER RNA APTAMERS” (CITY OF HOPE, published 2018), this text covers Kd for one molecule.

B1: P19 (ssRNA)
RNA: GGGAGACAAGAAUAAACGCUCAAUGGCGAAUGCCCGCCUAAUAGGGCGUUAUGACUUGUUGAGUUCGACAGGAGGCUCACAACAGGC
modifications: 2'-F pyrimidines
For B1, the affinity, expressed as Kd, was 13.1 nM.
